# Data from PMC6599655.
# B1: Procollagen C-proteinase enhancer protein (PCOLCE): N29Q (protein)
# parent chain: MLPAATASLLGPLLTACALLPFAQGQTPNYTRPVFLCGGDVKGESGYVASEGFPNLYPPNKECIWTITVPEGQTVSLSFRVFDLELHPACRYDALEVFAGSGTSGQRLGRFCGTFRPAPLVAPGNQVTLRMTTDEGTGGRGFLLWYSGRATSGTEHQFCGGRLEKAQGTLTTPNWPESDYPPGISCSWHIIAPPDQVIALTFEKFDLEPDTYCRYDSVSVFNGAVSDDSRRLGKFCGDAVPGSISSEGNELLVQFVSDLSVTADGFSASYKTLPRGTAKEGQGPGPKRGTEPKVKLPPKSQPPEKTEESPSAPDAPTCPKQCRRTGTLQSNFCASSLVVTATVKSMVREPGEGLAVTVSLIGAYKTGGLDLPSPPTGASLKFYVPCKQCPPMKKGVSYLLMGQVEENRGPVLPPESFVVLHRPNQDQILTNLSKRKCPSQPVRAAASQD
# How the values were obtained:
# [1] = Western blot of 293T cell lysates; conditions: glycan lost; control: wild type
# [2] = Western blot of concentrated culture supernatant vs lysate; conditions: glycan lost; control: wild type
protein,measurement,setting,value
B1,expression_or_secretion,[1],decreases
same,expression_or_secretion,[2],decreases
